Data taken from US8889621B2, “Inhibiting binding of FGF23 to the binary FGFR-Klotho complex for the treatment of hypophosphatemia” (New York University, priority 2009, dated 2014).
“Also recorded” adds a separate entry of the source. Peptide text beside a SMILES is read from it.

Columns and labels:
[1] = tested on: binary FGFR-Klotho complexes (FGFR1c, FGFR3c, or FGFR4); assay: Co-immunoprecipitation based competition assay, HEK293-Klotho lysates; assay type: binding
Excerpt: Co-immunoprecipitation may also be used to determine that an agent specifically binds the binary FGFR-Klotho complex. One aspect of the present invention utilizes co-immunoprecipitation studies. Subconfluent cultures of a HEK293 cell line ectopically expressing the FLAG-tagged membrane-spanning form of murine Klotho were transfected with expression vectors for V5-tagged FGFR1c, FGFR3c, or FGFR4. Two days later, the cells were lysed, and FGFR-Klotho complexes were isolated from cell lysate using anti-V5 agarose beads. The beads were then incubated with either FGF23^180-251 or FGF23^28-251 alone, or with mixtures of FGF23^28-251 with either increasing FGF23^180-251 or increasing FGF23^180-205. Bead-bound proteins were resolved on SDS-polyacrylamide gels, transferred to nitrocellulose membranes, and labeled using antibodies to Klotho, FGF23, and V5 epitope tag.
In parallel, subconfluent HEK293-Klotho cells (Kurosu et al., “Regulation of Fibroblast Growth Factor-23 Signaling by Klotho,” J Biol Chem 281(10):6120-6123 (2006), which is hereby incorporated by reference in its entirety) were transfected with expression vectors for V5-tagged FGFR1c, FGFR3c, or FGFR4 (Kurosu et al., “Regulation of Fibroblast Growth Factor-23 Signaling by Klotho,” J Biol Chem 281(10):6120-6123 (2006), which is hereby incorporated by reference in its entirety) and binding of FGF23 proteins/peptides to Klotho-FGFR complexes isolated from cell lysate was analyzed. Two days later, the cells were lysed (Kurosu et al, “Suppression of Aging in Mice by the Hormone Klotho,” Science 309(5742):1829-1833 (2005), which is hereby incorporated by reference in its entirety), and FGFR-Klotho complexes were isolated from cell lysate using anti-V5 agarose beads (Sigma-Aldrich) (Kurosu et al., “Regulation of Fibroblast Growth Factor-23 Signaling by Klotho,” J Biol Chem 281(10):6120-6123 (2006), which is hereby incorporated by reference in its entirety). The beads were then incubated with either FGF23^180-251 (1 nM) or FGF23^28-251 (1 nM) alone, or with mixtures of FGF23^28-251 (1 nM) with either increasing FGF23^180-251 (2 to 76 nM) or increasing FGF23^180-205 (0.1 to 10 μM). Bead-bound proteins were resolved on SDS-polyacrylamide gels, transferred to nitrocellulose membranes, and labeled using antibodies to Klotho (KM2119, (Kato et al., “Establishment of the Anti-Klotho Monoclonal Antibodies and Detection of Klotho Protein in Kidneys,” Biochemical Biophysical Res Communications 267(2):597-602 (2000), which is hereby incorporated by reference in its entirety)), FGF23 (R&D systems), and V5 epitope tag (Invitrogen).

Hyp mice = assay: Urine and serum phosphate in Hyp mice after IP injection; assay type: in vivo, mouse; details: vs vehicle; for serum phosphate: IP, FGF23^180-251 1 mg or FGF23^180-205 860 μg
Excerpt: The anti-phosphaturic activity of FGF23 C-terminal peptides was examined in normal Sprague-Dawley rats and in Hyp mice, a mouse model of human X-linked hypophosphatemia (XLH) (Beck et al., “Pex/PEX Tissue Distribution and Evidence for a Deletion in the 3′ Region of the Pex Gene in X-linked Hypophosphatemic Mice,” J Clin Invest 99(6):1200-1209 (1997), Eicher et al., “Hypophosphatemia: Mouse Model for Human Familial Hypophosphatemic (Vitamin D-resistant) Rickets,” Proc Natl Acad Sci USA 73(12):4667-4671 […], Strom et al., “Pex Gene Deletions in Gy and Hyp Mice Provide Mouse Models for X-linked Hypophosphatemia,” Hum Mol Genet. 6(2):165-171 (1997), which are hereby incorporated by reference in their entirety). The animals were fed a complete, fixed formula diet containing 0.94% phosphate. Anesthetized rats (220-250 g body weight) were administered IV either FGF23^28-251 (0.1 μg kg body weight^−1) or FGF23^180-251 (0.1 μg kg body weight^−1) or vehicle. Before and 3 h after the injection, blood was drawn from the carotid artery and urine was collected through bladder catheterization. Plasma and urine chemistry of animals were analyzed using Vitros Chemistry Analyzer (Ortho-Clinical Diagnosis). 10- to 15-week old Hyp mice were fasted for 8-12 h before administering IP either FGF23^180-251 (1 mg) or FGF23^180-205 (860 μg) or vehicle. Before and 2 h, 4 h, 8 h, and 24 h after the injection, urine and serum samples were collected. Phosphate concentrations in urine and serum were determined using Phosphorus Liqui-UV Test (Stanbio Laboratory), and urine creatinine levels were measured using DetectX™ Urinary Creatinine Detection Kit (LuminosAssays).

[2] = co-immunoprecipitation competition

CSCC[C@H](NC(=O)[C@H](CCCNC(=N)N)NC(=O)[C@H](C)NC(=O)[C@H](CCCNC(=N)N)NC(=O)[C@@H]1CCCN1C(=O)[C@H](CCCCN)NC(=O)[C@H](CC(C)C)NC(=O)[C@@H](NC(=O)[C@H](CC(N)=O)NC(=O)[C@H](CC(C)C)NC(=O)[C@@H]1CCCN1C(=O)[C@H](CC(=O)O)NC(=O)[C@H](CCCNC(=N)N)NC(=O)[C@H](CCC(=O)O)NC(=O)[C@H](CO)NC(=O)[C@H](CC(=O)O)NC(=O)[C@H](CC(=O)O)NC(=O)[C@H](CCC(=O)O)NC(=O)[C@H](C)NC(=O)[C@@H](N)CO)C(C)C)C(=O)N[C@H](C(=O)N1CCC[C@H]1C(=O)N[C@@H](C)C(=O)N1CCC[C@H]1C(=O)N[C@@H](C)C(=O)N[C@@H](CO)C(=O)O)[C@@H](C)O [FGF23^180-205] (H-SAEDDSERDPLNVLKPRARMTPAPAS-OH; N-terminus and C-terminus assumed)
inhibition of binding (co-precipitation) of FGF23^28-251 with binary FGFR-Klotho complexes [1, 2]: able to inhibit binding; also recorded: inhibited co-precipitation | reduced potency compared to the FGF23^180-251 peptide [1, 2]: over 100 fold | serum phosphate (Hyp mice): increase

B1: FGF23^180-251: 72-amino acid C-terminal tail of human FGF23 (S180 to I251), expressed in E. coli (protein, listed as Homo sapiens)
chain: SAEDDSERDPLNVLKPRARMTPAPASCSQELPSAEDNSPMASDPLGVVRGGRVNTHAGGTGPEGCRPFAKFI
molar excess that completely blocked binding of FGF23^28-251 to the FGFR-Klotho complex ([1]; FGF23^28-251 1 nM): 76 fold molar excess | inhibition of binding (co-precipitation) of FGF23^28-251 with binary FGFR-Klotho complexes [1, 2]: can inhibit binding | renal phosphate excretion (Hyp mice; IP 1 mg): decrease | serum phosphate (Hyp mice): elevated
